Data published in doi:10.1101/2025.09.11.675134, “Biodistribution-Driven Discovery Identifies a Glycosidase-Cleavable Linker to Reprogram Radiotheranostics” (bioRxiv, 2025).
Like-named read-outs stand apart in the source and are kept apart here.

Tests used:
[1] = Ex vivo biodistribution of 111In-labeled variants in AR42J xenograft mice; design: species or system athymic nude mice; settings: athymic nude, mouse, iv, 1 ug, total radioactivity, 1 h post-injection; for tissue uptake at 1 h: AR42J tumor-bearing mice
Procedure: For studies involving three variants (DOTA -TATE, DOTA-MVK(ε)-TATE, and DOTA-β-Gal-TATE), AR42J cells (5 × 10^6 cells per mouse) were subcutaneously inoculated into the right shoulder of the mice. Tumors were allowed to grow for 3 weeks, reaching a volume of 100 –200 mm³ before being used in subsequent experiments. For biodistribution or PET imaging studies, mice bearing subcutaneous AR42J tumors were administered 1.4 – 1.8 MBq (1 μg) of 111In-labeled DOTA-TATE variants or 2.7 – 4.9 MBq (1 μg) of 86Y-labeled DOTA-TATE variants via tail vein injection. Biodistribution studies with 111In-labeled DOTA -TATE variants were performed 1 hour post -injection (n = 3 per cohort), while studies with 86Y-labeled DOTA-TATE variants were conducted at 1, 4, and 24 hours post -injection (n = 3 per cohort). Mice were euthanized by CO2 asphyxiation, and 10 tissues, including tumors, were collected. All samples were weighed and counted on a gamma counter (2480 Wizard 3, Perkin Elmer Inc., Waltham, MA, USA). Results are presented as percentage of injected activity per gram (%IA/g) and mean values ± standard deviations. […]

[2] = Ex vivo biodistribution screen of 111In-labeled DOTA-TATE derivatives in normal mice; design: species or system athymic nude mice; settings: 2 h post-injection; for tissue uptake at 2 h: athymic nude, mouse, iv, 1 ug per mouse, total radioactivity, normal athymic nude mice, mean
Procedure: The panel of 10 compounds were then tested in an initial biodistribution screen of 9 organs assessed in non-tumor-bearing mice at specific timepoints following administration of the radioconjugates. Each agent was initially labeled with ^111In, a long-lived gamma-emitting radioisotope suitable for biodistribution studies, with high radiochemical yields and purity (Fig. S12). The compounds were then dosed (1.55 ± 0.12 MBq; 1 μg per mouse) in healthy athymic nude mice via intravenous (i.v.) injection in phosphate-buffered saline (PBS; vehicle). After 2 hours, the mice were sacrificed and ex vivo biodistribution analysis was performed (Fig. 2). […] This was an expected finding because this variant was designed to bind serum albumin.
Radiolabeling and In Vivo Evaluation of DOTA-TATE Variants:
Biodistribution, PET Quantification, and Dosimetry
Radiolabeling: To perform the initial biodistribution screen, radiolabeling of 10 compounds, including DOTA-TATE, was carried out using 111In (Cardinal Health, Arbutus, MD, USA), an affordable and readily available gamma -emitting radioisotope with a moderate half -life (2.83 days), which affords efficient DOTA radiolabeling and facilitates handling. 111InCl3 (28 – 36 MBq) was diluted with 0.4 M NH 4OAc buffer (pH 5.2) and combined with DOTA -TATE variants (20 μg). The solution was mixed well and then incubated at 90 °C for 30 min.
Radiolabeling efficiency and radiochemical purity were determined by radio -TLC and radio - HPLC. Radiochemical yield was >95% and the material was used without further purification.
The specific activity was 1.55 ± 0.12 TBq/g (41.9 ± 3.2 Ci/g). […]
Radio-instant thin-layer chromatography (radio-iTLC) was performed using silicic acid-impregnated glass microfiber paper strips (iTLC-SA, Varian, Lake Forest, CA, USA) as the stationary phase, and 50 mM EDTA in 100 mM NH4OAc (pH 5.5) as the mobile phase, analyzed with a radio-TLC scanner (AR-2000, Eckert-Ziegler, Wilmington, MA, USA). For Ac-225, equilibration was allowed for at least 12 hours before scanning the TLC strips to confirm initial scans. Radio-HPLC analysis (Agilent 1260 Infinity II, Agilent Technologies Inc., Santa Clara, CA, USA) was conducted on a TSK- Octadecyl-4PW column (5 µm, 4.6 mm ID × 15 cm, Tosoh
Co. Tokyo, Japan) with gradient elution using 0.1% trifluoroacetic acid in water as mobile phase A and 0.1% trifluoroacetic acid in acetonitrile as Mobile phase B. The elution sequence was 0-5 […]
PET imaging and biodistribution: For initial biodistribution screen studies, normal mice were administered 1.4 – 1.8 MBq (1 μg) of 111In-DOTA-TATE variants via tail vein injection and biodistribution studies were conducted at 2 hours post -injection (n = 2 – 4 per cohort).
For studies involving three variants (DOTA -TATE, DOTA-MVK(ε)-TATE, and DOTA-β-Gal-TATE), AR42J cells (5 × 10^6 cells per mouse) were subcutaneously inoculated into the right shoulder of the mice. Tumors were allowed to grow for 3 weeks, reaching a volume of 100 –200 mm³ before being used in subsequent experiments. For biodistribution or PET imaging studies, mice bearing subcutaneous AR42J tumors were administered 1.4 – 1.8 MBq (1 μg) of 111In-labeled DOTA-TATE variants or 2.7 – 4.9 MBq (1 μg) of 86Y-labeled DOTA-TATE variants via tail vein injection. Biodistribution studies with 111In-labeled DOTA -TATE variants were performed 1 hour post -injection (n = 3 per cohort), while studies with 86Y-labeled DOTA-TATE variants were conducted at 1, 4, and 24 hours post -injection (n = 3 per cohort). Mice were euthanized by CO2 asphyxiation, and 10 tissues, including tumors, were collected. All samples were weighed and counted on a gamma counter (2480 Wizard 3, Perkin Elmer Inc., Waltham, MA, USA). Results are presented as percentage of injected activity per gram (%IA/g) and mean values ± standard deviations.
PET imaging to assess the uptake of three 86Y-labeled DOTA-TATE variants (2.7 – 4.9 MBq, 1 […]

[3] = blood, i.v. 1 μg (1.4–1.8 MBq), ex vivo gamma counting, mean, n = 3, read-out: Blood uptake
[4] = femur, i.v. 1 μg, ex vivo, mean, n = 3, read-out: Femur uptake
[5] = heart, i.v. 1 μg, ex vivo, mean, n = 3, read-out: Heart uptake
[6] = kidney, i.v. 1 μg, ex vivo, mean (± SD), n = 3, read-out: Kidney uptake
[7] = liver, i.v. 1 μg, ex vivo, mean, n = 3, read-out: Liver uptake
[8] = lung, i.v. 1 μg, ex vivo, mean, n = 3, read-out: Lung uptake
[9] = muscle, i.v. 1 μg, ex vivo, mean, n = 3, read-out: Muscle uptake
[10] = spleen, i.v. 1 μg, ex vivo, mean, n = 3, read-out: Spleen uptake
[11] = tumor (AR42J xenograft), i.v. 1 μg, ex vivo, mean (± SD), n = 3, read-out: Tumor uptake
[12] = blood, i.v. 1 μg (1.4–1.8 MBq), ex vivo gamma counting, n = 2–4, read-out: Blood uptake
[13] = femur, i.v. 1 μg, ex vivo, n = 2–4, read-out: Femur uptake
[14] = heart, i.v. 1 μg, ex vivo, n = 2–4, read-out: Heart uptake
[15] = intestine, i.v. 1 μg, ex vivo, n = 2–4, read-out: Intestine uptake
[16] = liver, i.v. 1 μg, ex vivo, n = 2–4, read-out: Liver uptake
[17] = lung, i.v. 1 μg, ex vivo, n = 2–4, read-out: Lung uptake
[18] = muscle, i.v. 1 μg, ex vivo, n = 2–4, read-out: Muscle uptake
[19] = spleen, i.v. 1 μg, ex vivo, n = 2–4, read-out: Spleen uptake

Row | SMILES | tissue uptake at 1 h [1, 3] | tissue uptake at 1 h [1, 4] | tissue uptake at 1 h [1, 5] | tissue uptake at 1 h ([1]; intestine, i.v. 1 μg, ex vivo, mean, n = 3, read-out: Intestine uptake) | tissue uptake at 1 h [1, 6] | tissue uptake at 1 h [1, 7] | tissue uptake at 1 h [1, 8] | tissue uptake at 1 h [1, 9] | tissue uptake at 1 h [1, 10] | tissue uptake at 1 h [1, 11] | tissue to tissue ratio at 1 h ([1]; tumor and kidney, AR42J xenografts, ex vivo, read-out: Tumor-to-kidney (T/K) ratio) | tissue uptake at 2 h [2, 12] | tissue uptake at 2 h [2, 13] | tissue uptake at 2 h [2, 14] | tissue uptake at 2 h [2, 15] | tissue uptake at 2 h [2, 16] | tissue uptake at 2 h [2, 17] | tissue uptake at 2 h [2, 18] | tissue uptake at 2 h [2, 19] | Relative kidney retention, % rel. to DOTA-TATE ([2]; normal mice, 111In-DOTA-TATE set as 100%)
1 | CSCC[C@H](NC(=O)CN1CCN(CC(=O)O)CCN(CC(=O)O)CCN(CC(=O)O)CC1)C(=O)N[C@H](C(=O)N[C@@H](CCCCNC(=O)CCCC(=O)N[C@H](Cc1ccccc1)C(=O)N[C@H]1CSSC[C@@H](C(=O)N[C@H](C(=O)O)[C@@H](C)O)NC(=O)[C@H]([C@@H](C)O)NC(=O)[C@H](CCCCN)NC(=O)[C@@H](Cc2c[nH]c3ccccc23)NC(=O)[C@H](Cc2ccc(O)cc2)NC1=O)C(=O)O)C(C)C [^111In-DOTA-MVK(ε)-TATE, metal not drawn] | 0.73 %ID/g | 0.55 %ID/g | 0.29 %ID/g | 0.81 %ID/g | 5.56 ± 0.29 %ID/g | 0.31 %ID/g | 0.73 %ID/g | 0.27 %ID/g | 0.16 %ID/g | 5.44 ± 0.19 %ID/g | 0.98 | 0.15 %ID/g | 0.31 %ID/g | 0.11 %ID/g | 0.83 %ID/g | 0.16 %ID/g | 0.33 %ID/g | 0.06 %ID/g | 0.12 %ID/g | 67%
2 | C[C@@H](O)[C@H](NC(=O)[C@@H]1CSSC[C@H](NC(=O)[C@@H](Cc2ccccc2)NC(=O)CN2CCN(CC(=O)O)CCN(CC(=O)O)CCN(CC(=O)O)CC2)C(=O)N[C@@H](Cc2ccc(O)cc2)C(=O)N[C@H](Cc2c[nH]c3ccccc23)C(=O)N[C@@H](CCCCN)C(=O)N[C@@H]([C@@H](C)O)C(=O)N1)C(=O)O [^111In-DOTA-TATE, metal not drawn, reference compound] | 0.27 %ID/g | 0.12 %ID/g | 0.1 %ID/g | – | 7.33 ± 0.04 %ID/g | 0.23 %ID/g | 0.49 %ID/g | 0.06 %ID/g | 0.1 %ID/g | 5.67 ± 0.92 %ID/g | – | 0.04 %ID/g | 0.05 %ID/g | 0.03 %ID/g | 0.51 %ID/g | 0.09 %ID/g | 0.18 %ID/g | 0.01 %ID/g | 0.06 %ID/g | –
